Measurements as given in publication PMC6171324.

How the values were obtained:
[1] = CM size in heart sections 7 days post-MI; conditions: glycan lost; control: control constructs
[2] = proliferation markers in non-CMs 7 days post-MI; conditions: glycan lost; control: hFSTL1 modRNA
[3] = Masson trichrome staining, 28 days post-MI; conditions: glycan lost; control: Luc modRNA (hFSTL1 modRNA not significant)
[4] = weighing, 28 days post-MI; conditions: glycan lost; control: Luc modRNA
[5] = echography, %EF and %FS, 28 days post-MI; conditions: glycan lost; control: Luc modRNA (hFSTL1 modRNA not significant)
[6] = CD45 staining 7 days post-MI; conditions: glycan lost; control: hFSTL1 modRNA
[7] = CD31 staining, left ventricle, 28 days post-MI; conditions: glycan lost; control: Luc modRNA

Protein	other: CM size / hypertrophy [1]	other: non-CM proliferation in heart [2]	other: scar size post-MI [3]	other: heart weight-to-body weight ratio [4]	other: cardiac function post-MI [5]	other: leukocyte infiltration in heart [6]	other: capillary density post-MI [7]
human FSTL 1 (hFSTL1): N180Q (Mut-1) (protein) parent chain: MWKRWLALALALVAVAWVRAEEELRSKSKICANVFCGAGRECAVTEKGEPTCLCIEQCKPHKRPVCGSNGKTYLNHCELHRDACLTGSKIQVDYDGHCKEKKSVSPSASPVVCYQSNRDELRRRIIQWLEAEIIPDGWFSKGSNYSEILDKYFKNFDNGDSRLDSSEFLKFVEQNETAINITTYPDQENNKLLRGLCVDALIELSDENADWKLSFQEFLKCLNPSFNPPEKKCALEDETYADGAETEVDCNRCVCACGNWVCTAMTCDGKNQKGAQTQTEEEMTRYVQELQKHQETAEKTKRVSTKEI	no change	no change	decreases	increases	increases	no change	increases
human FSTL 1 (hFSTL1): Mut-(1–3) (protein) parent chain: MWKRWLALALALVAVAWVRAEEELRSKSKICANVFCGAGRECAVTEKGEPTCLCIEQCKPHKRPVCGSNGKTYLNHCELHRDACLTGSKIQVDYDGHCKEKKSVSPSASPVVCYQSNRDELRRRIIQWLEAEIIPDGWFSKGSNYSEILDKYFKNFDNGDSRLDSSEFLKFVEQNETAINITTYPDQENNKLLRGLCVDALIELSDENADWKLSFQEFLKCLNPSFNPPEKKCALEDETYADGAETEVDCNRCVCACGNWVCTAMTCDGKNQKGAQTQTEEEMTRYVQELQKHQETAEKTKRVSTKEI	no change	no change	no change	–	no change	no change	–
human FSTL 1 (hFSTL1): N144Q (Mut-3) (protein) parent chain: MWKRWLALALALVAVAWVRAEEELRSKSKICANVFCGAGRECAVTEKGEPTCLCIEQCKPHKRPVCGSNGKTYLNHCELHRDACLTGSKIQVDYDGHCKEKKSVSPSASPVVCYQSNRDELRRRIIQWLEAEIIPDGWFSKGSNYSEILDKYFKNFDNGDSRLDSSEFLKFVEQNETAINITTYPDQENNKLLRGLCVDALIELSDENADWKLSFQEFLKCLNPSFNPPEKKCALEDETYADGAETEVDCNRCVCACGNWVCTAMTCDGKNQKGAQTQTEEEMTRYVQELQKHQETAEKTKRVSTKEI	–	no change	–	–	–	no change	–
human FSTL 1 (hFSTL1): N175Q (Mut-2) (protein) parent chain: MWKRWLALALALVAVAWVRAEEELRSKSKICANVFCGAGRECAVTEKGEPTCLCIEQCKPHKRPVCGSNGKTYLNHCELHRDACLTGSKIQVDYDGHCKEKKSVSPSASPVVCYQSNRDELRRRIIQWLEAEIIPDGWFSKGSNYSEILDKYFKNFDNGDSRLDSSEFLKFVEQNETAINITTYPDQENNKLLRGLCVDALIELSDENADWKLSFQEFLKCLNPSFNPPEKKCALEDETYADGAETEVDCNRCVCACGNWVCTAMTCDGKNQKGAQTQTEEEMTRYVQELQKHQETAEKTKRVSTKEI	–	no change	–	–	–	no change	–
